# According to the supplement of paper PMC10567573:
# B1: MNAT1 (parent)
# chain: LAPIHKLEEALYEYQPLQIETYGP
# Variants of: B1
# Assay: protein stability index of a GFP-peptide fusion (GPS, HEK-293T) (PSI 1-6); higher = more stable
# Settings: c terminus: a fixed tail appended
# 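Also: lentivirally expressed fusions sorted by FACS into six bins by GFP to DsRed ratio, PSI derived from sequencing read proportions per bin multiplied by bin number.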
row,Variant,protein stability index
1,LAPIHKLECALYEYQPLQIETYGP [E9C],2.68
2,LAPIHKLEYALYEYQPLQIETYGP [E9Y],1.32
3,LAPIHKLEVALYEYQPLQIETYGP [E9V],3.14
4,LAPIHKLEAALYEYQPLQIETYGP [E9A],2.48
5,LAPIHKLEWALYEYQPLQIETYGP [E9W],2.08
6,LAPIHKLEQALYEYQPLQIETYGP [E9Q],1.91
7,LAPIHKLENALYEYQPLQIETYGP [E9N],1.78
8,LAPIHKLEHALYEYQPLQIETYGP [E9H],2.15
9,LAPIHKLERALYEYQPLQIETYGP [E9R],1.91
10,LAPIHKLEIALYEYQPLQIETYGP [E9I],2.42
11,LAPIHKLEMALYEYQPLQIETYGP [E9M],2.34
12,LAPIHKLEFALYEYQPLQIETYGP [E9F],2.25
13,LAPIHKLEGALYEYQPLQIETYGP [E9G],2.62
14,LAPIHKLEDALYEYQPLQIETYGP [E9D],2.25
15,LAPIHKLEKALYEYQPLQIETYGP [E9K],2.26
16,LAPIHKLELALYEYQPLQIETYGP [E9L],3.09
17,LAPIHKLESALYEYQPLQIETYGP [E9S],1.71
18,LAPIHKLETALYEYQPLQIETYGP [E9T],2.16
19,LAPIHKLEPALYEYQPLQIETYGP [E9P],2.25
20,LAPIHKLEEALYELQPLQIETYGP [Y14L],2.1
21,LAPIHKLEEALYEDQPLQIETYGP [Y14D],4.2
22,LAPIHKLEEALYENQPLQIETYGP [Y14N],2.99
23,LAPIHKLEEALYERQPLQIETYGP [Y14R],3.59
24,LAPIHKLEEALYECQPLQIETYGP [Y14C],2.54

row,Variant,protein stability index
1,LAPIHKLEEALYEFQPLQIETYGP [Y14F],2.1
2,LAPIHKLEEALYEHQPLQIETYGP [Y14H],3.32
3,LAPIHKLEEALYEMQPLQIETYGP [Y14M],2.42
4,LAPIHKLEEALYEKQPLQIETYGP [Y14K],3.53
5,LAPIHKLEEALYEWQPLQIETYGP [Y14W],2.28
6,LAPIHKLEEALYEAQPLQIETYGP [Y14A],3.19
7,LAPIHKLEEALYEIQPLQIETYGP [Y14I],2.52
8,LAPIHKLEEALYEQQPLQIETYGP [Y14Q],2.87
9,LAPIHKLEEALYEPQPLQIETYGP [Y14P],2.94
10,LAPIHKLEEALYETQPLQIETYGP [Y14T],3.33
11,LAPIHKLEEALYESQPLQIETYGP [Y14S],3.36
12,LAPIHKLEEALYEGQPLQIETYGP [Y14G],3.45
13,LAPIHKLEEALYEVQPLQIETYGP [Y14V],2.75
14,LAPIHKLEEALYEEQPLQIETYGP [Y14E],3.43
15,LAPIHKNEEALYEYQPLQIETYGP [L7N],2.72
16,LAPIHKAEEALYEYQPLQIETYGP [L7A],3.44
17,LAPIHKSEEALYEYQPLQIETYGP [L7S],3.52
18,LAPIHKTEEALYEYQPLQIETYGP [L7T],3.33
19,LAPIHKYEEALYEYQPLQIETYGP [L7Y],2.85
20,LAPIHKMEEALYEYQPLQIETYGP [L7M],3.05
21,LAPIHKREEALYEYQPLQIETYGP [L7R],3.06
22,LAPIHKDEEALYEYQPLQIETYGP [L7D],4.04
23,LAPIHKVEEALYEYQPLQIETYGP [L7V],2.76
24,LAPIHKWEEALYEYQPLQIETYGP [L7W],3.02

row,Variant,protein stability index
1,LAPIHKQEEALYEYQPLQIETYGP [L7Q],2.97
2,LAPIHKGEEALYEYQPLQIETYGP [L7G],2.81
3,LAPIHKPEEALYEYQPLQIETYGP [L7P],3.29
4,LAPIHKKEEALYEYQPLQIETYGP [L7K],3.54
5,LAPIHKHEEALYEYQPLQIETYGP [L7H],3.55
6,LAPIHKEEEALYEYQPLQIETYGP [L7E],3.98
7,LAPIHKFEEALYEYQPLQIETYGP [L7F],2.37
8,LAPIHKCEEALYEYQPLQIETYGP [L7C],2.69
9,LAPIHKIEEALYEYQPLQIETYGP [L7I],2.15
10,LAPIHKLEEAHYEYQPLQIETYGP [L11H],2.54
11,LAPIHKLEEARYEYQPLQIETYGP [L11R],2.77
12,LAPIHKLEEAFYEYQPLQIETYGP [L11F],2.07
13,LAPIHKLEEAAYEYQPLQIETYGP [L11A],3.55
14,LAPIHKLEEANYEYQPLQIETYGP [L11N],3.41
15,LAPIHKLEEAVYEYQPLQIETYGP [L11V],2.9
16,LAPIHKLEEAWYEYQPLQIETYGP [L11W],2.14
17,LAPIHKLEEAYYEYQPLQIETYGP [L11Y],2.42
18,LAPIHKLEEAIYEYQPLQIETYGP [L11I],2.3
19,LAPIHKLEEAMYEYQPLQIETYGP [L11M],2.34
20,LAPIHKLEEADYEYQPLQIETYGP [L11D],3.71
21,LAPIHKLEEAQYEYQPLQIETYGP [L11Q],3.23
22,LAPIHKLEEAKYEYQPLQIETYGP [L11K],3.38
23,LAPIHKLEEACYEYQPLQIETYGP [L11C],2.69
24,LAPIHKLEEAPYEYQPLQIETYGP [L11P],3.17

row,Variant,protein stability index
1,LAPIHKLEEATYEYQPLQIETYGP [L11T],2.57
2,LAPIHKLEEAGYEYQPLQIETYGP [L11G],3.48
3,LAPIHKLEEAEYEYQPLQIETYGP [L11E],3.57
4,LAPIHKLEEALYEYQPCQIETYGP [L17C],2.51
5,LAPIHKLEEALYEYQPAQIETYGP [L17A],2.5
6,LAPIHKLEEALYEYTPLQIETYGP [Q15T],2.2
7,LAPIHKLEEALYEYIPLQIETYGP [Q15I],1.66
8,LAPIHKLEEALYEYHPLQIETYGP [Q15H],2.08
9,LAPIHKLEEALYEYAPLQIETYGP [Q15A],2.17
10,LAPIHKLEEALYEYKPLQIETYGP [Q15K],2.26
11,LAPIHKLEEALYEYSPLQIETYGP [Q15S],2.07
12,LAPIHKLEEALYEYDPLQIETYGP [Q15D],2.94
13,LAPIHKLEEALYEYNPLQIETYGP [Q15N],1.83
14,LAPIHKLEEALYEYYPLQIETYGP [Q15Y],1.44
15,LAPIHKLEEALYEYEPLQIETYGP [Q15E],2.36
16,LAPIHKLEEALYEYVPLQIETYGP [Q15V],1.44
17,LAPIHKLEEALYEYFPLQIETYGP [Q15F],1.17
18,LAPIHKLEEALYEYCPLQIETYGP [Q15C],1.05
19,LAPIHKLEEALYEYMPLQIETYGP [Q15M],1.94
20,LAPIHKLEEALYEYRPLQIETYGP [Q15R],2.03
21,LAPIHKLEEALYEYGPLQIETYGP [Q15G],1.52
22,LAPIHKLEEALYEYLPLQIETYGP [Q15L],1.73
